± gives the uncertainty stated by the source.
B1: E3 ubiquitin-protein ligase NEDD4-like, residues 539 to 589; numbered along this chain, Q96PU5 (parent)
chain: KTSLNPNDLGPLPPGWEERIHLDGRTFYIDHNSKITQWEDPRLQNPAITGP

Variants of: B1
Experiment: abundance fitness (aPCA) (normalised: wild type 0, dead -1); higher = more abundant; growth selection in yeast, the domain comes from the species named
Conditions: Homo sapiens

Variant	abundance fitness
P51C	-0.232 ± 0.098
H31E	-0.243 ± 0.042
H31V	-0.07 ± 0.053
H31K	0.11 ± 0.072
H31G	-0.243 ± 0.043
H31I	-0.017 ± 0.075
H31L	-0.04 ± 0.044
H31Y	-0.414 ± 0.1
H31R	-0.156 ± 0.052
H31D	-0.601 ± 0.095
H31T	0.065 ± 0.054
H31M	0 ± 0.043
H31F	-0.479 ± 0.12
H31S	-0.08 ± 0.06
H31W	-0.428 ± 0.077
H31A	-0.174 ± 0.052
H31C	-0.149 ± 0.051
H31Q	-0.224 ± 0.071
Q44H	-0.155 ± 0.059
Q44R	-0.039 ± 0.041
Q44I	-0.016 ± 0.092
Q44N	-0.091 ± 0.046
Q44C	-0.15 ± 0.08
Q44G	-0.022 ± 0.05

Variant	abundance fitness
Q44T	-0.078 ± 0.064
Q44V	-0.114 ± 0.05
Q44E	0.074 ± 0.053
Q44M	-0.049 ± 0.083
Q44Y	-0.336 ± 0.12
Q44F	-0.218 ± 0.079
Q44D	0.028 ± 0.082
Q44S	-0.054 ± 0.053
Q44A	-0.028 ± 0.072
Q44P	-0.135 ± 0.054
Q44K	0.11 ± 0.097
Q44W	-0.27 ± 0.068
W38V	-0.146 ± 0.041
W38D	0.002 ± 0.053
W38Q	-0.07 ± 0.041
W38K	-0.029 ± 0.059
W38T	0.058 ± 0.05
W38P	-0.223 ± 0.054
W38L	-0.173 ± 0.041
W38G	-0.249 ± 0.04
W38A	-0.014 ± 0.044
W38M	-0.127 ± 0.046
W38H	-0.121 ± 0.049
W38Y	-0.041 ± 0.047

Variant	abundance fitness
W38N	-0.059 ± 0.048
W38F	0.066 ± 0.048
W38E	0.068 ± 0.056
W38I	-0.162 ± 0.039
P46D	-0.028 ± 0.086
P46I	-0.171 ± 0.07
P46A	-0.06 ± 0.048
P46W	-0.249 ± 0.069
P46S	-0.048 ± 0.054
P46M	0.084 ± 0.11
P46K	0.028 ± 0.075
P46Y	-0.317 ± 0.11
P46H	-0.105 ± 0.096
P46Q	-0.27 ± 0.11
P46C	-0.098 ± 0.046
P46G	0.01 ± 0.053
P46F	-0.228 ± 0.075
P46E	-0.39 ± 0.091
P46T	-0.051 ± 0.076
P46V	-0.014 ± 0.064
P46N	-0.263 ± 0.11
P46L	0.161 ± 0.065
T49F	-0.165 ± 0.068
T49R	-0.042 ± 0.044

Variant	abundance fitness
T49D	-0.086 ± 0.1
T49A	-0.121 ± 0.059
T49S	-0.077 ± 0.069
T49Q	-0.199 ± 0.092
T49K	-0.267 ± 0.095
T49I	-0.226 ± 0.12
T49W	-0.213 ± 0.063
T49L	-0.104 ± 0.052
T49M	-0.091 ± 0.055
T49V	-0.198 ± 0.061
T49P	-0.135 ± 0.071
T49G	-0.045 ± 0.054
T49Y	-0.286 ± 0.093
T49N	-0.313 ± 0.13
T49H	-0.089 ± 0.11
T49E	-0.144 ± 0.091
K34H	-0.087 ± 0.099
K34E	-0.251 ± 0.059
K34T	-0.218 ± 0.078
K34A	-0.176 ± 0.071
K34Q	0.076 ± 0.092
K34M	-0.105 ± 0.083
K34R	-0.119 ± 0.042
K34G	-0.022 ± 0.044

Variant	abundance fitness
K34V	-0.58 ± 0.049
K34D	-0.063 ± 0.082
K34S	-0.197 ± 0.046
K34L	-0.284 ± 0.053
K34W	-0.547 ± 0.051
K34Y	-0.39 ± 0.091
K34P	-0.857 ± 0.063
K34F	-0.513 ± 0.089
K34N	-0.053 ± 0.095
K34C	-0.223 ± 0.053
K34I	-0.875 ± 0.2
Q37T	0.21 ± 0.067
Q37H	0.068 ± 0.11
Q37G	-0.723 ± 0.047
Q37W	-0.564 ± 0.065
Q37C	-0.207 ± 0.094
Q37K	-0.357 ± 0.059
Q37N	-0.511 ± 0.11
Q37M	-0.231 ± 0.079
Q37E	-0.742 ± 0.059
Q37L	-0.703 ± 0.061
Q37V	-0.397 ± 0.041
Q37A	-0.443 ± 0.065
Q37S	-0.014 ± 0.049

Variant	abundance fitness
Q37F	-0.358 ± 0.12
Q37D	-0.521 ± 0.089
Q37Y	-0.33 ± 0.096
I35C	0.002 ± 0.064
I35L	-0.035 ± 0.047
I35D	-0.128 ± 0.068
I35S	-0.079 ± 0.06
I35V	-0.163 ± 0.058
I35M	-0.239 ± 0.078
I35F	-0.16 ± 0.086
I35Q	0.029 ± 0.05
I35K	0.065 ± 0.074
I35N	-0.042 ± 0.091
I35T	0.04 ± 0.059
I35A	0.008 ± 0.061
I35G	-0.301 ± 0.057
I35R	0.048 ± 0.042
I35Y	-0.291 ± 0.091
L43E	-0.042 ± 0.073
L43T	-0.069 ± 0.066
L43V	-0.088 ± 0.071
L43W	-0.333 ± 0.073
L43Q	-0.144 ± 0.091
L43Y	-0.192 ± 0.1

Variant	abundance fitness
L43F	-0.104 ± 0.087
L43M	-0.153 ± 0.073
L43D	-0.139 ± 0.1
L43P	-0.089 ± 0.079
L43A	0.007 ± 0.071
L43I	-0.256 ± 0.084
L43H	-0.131 ± 0.12
L43R	-0.116 ± 0.056
L43C	-0.11 ± 0.078
L43N	-0.183 ± 0.084
L43G	-0.086 ± 0.05
E39V	-0.233 ± 0.051
E39M	-0.245 ± 0.059
E39G	-0.183 ± 0.056
E39N	-0.009 ± 0.076
E39A	-0.15 ± 0.051
E39S	-0.1 ± 0.053
E39I	-0.251 ± 0.086
E39W	-0.456 ± 0.074
E39T	-0.105 ± 0.084
E39R	-0.208 ± 0.049
E39F	-0.45 ± 0.092
E39K	-0.216 ± 0.084
E39Q	-0.362 ± 0.11

Variant	abundance fitness
E39Y	-0.412 ± 0.073
E39H	-0.153 ± 0.07
E39L	-0.313 ± 0.057
E39D	-0.077 ± 0.063
E39C	-0.194 ± 0.086
G50Y	-0.202 ± 0.17
G50A	0.012 ± 0.067
G50K	0.305 ± 0.45
G50W	-0.143 ± 0.1
G50P	-0.213 ± 0.17
G50M	-0.284 ± 0.39
G50L	0.118 ± 0.08
G50T	0.166 ± 0.17
G50S	-0.153 ± 0.093
G50Q	-0.351 ± 0.2
G50V	-0.064 ± 0.1
G50D	0.029 ± 0.076
G50E	0.223 ± 0.14
G50H	-0.555 ± 0.31
G50R	-0.18 ± 0.055
G50C	-0.329 ± 0.12
P41K	-0.868 ± 0.14
P41V	-0.848 ± 0.052
P41Y	-1.15 ± 0.28

Variant	abundance fitness
P41S	-0.827 ± 0.063
P41H	-1.08 ± 0.26
P41D	-0.98 ± 0.17
P41W	-1.11 ± 0.067
P41Q	-1.14 ± 0.13
P41C	-0.672 ± 0.12
P41I	-1.28 ± 0.13
P41T	-0.875 ± 0.079
P41F	-1.1 ± 0.1
P41N	-0.86 ± 0.17
P41R	-0.758 ± 0.057
P41G	-0.742 ± 0.049
P41E	-0.718 ± 0.082
P41A	-0.947 ± 0.078
P41M	-0.367 ± 0.098
T36H	0.032 ± 0.1
T36C	0.086 ± 0.07
T36W	-0.491 ± 0.056
T36A	-0.341 ± 0.045
T36G	-0.224 ± 0.048
T36Q	-0.336 ± 0.077
T36V	-0.263 ± 0.045
T36F	-0.261 ± 0.083
T36M	-0.208 ± 0.068

Variant	abundance fitness
T36P	-0.608 ± 0.09
T36N	-0.469 ± 0.16
T36L	-0.558 ± 0.06
T36E	-0.119 ± 0.049
T36R	-0.291 ± 0.05
D40L	-0.654 ± 0.071
D40G	-0.731 ± 0.062
D40Q	-0.878 ± 0.13
D40H	-0.16 ± 0.054
D40A	-0.528 ± 0.052
D40K	-0.585 ± 0.1
D40F	-0.566 ± 0.11
D40P	-0.401 ± 0.056
D40C	-0.639 ± 0.051
D40I	-0.574 ± 0.13
D40T	-0.919 ± 0.11
D40E	-0.587 ± 0.069
D40Y	-0.53 ± 0.045
D40S	-0.492 ± 0.058
D40M	-0.639 ± 0.11
D40V	-0.706 ± 0.052
D30Y	-0.358 ± 0.087
D30T	-0.716 ± 0.056
D30S	-0.32 ± 0.053

Variant	abundance fitness
D30V	-1.03 ± 0.049
D30R	-0.553 ± 0.045
S33M	-0.279 ± 0.11
S33G	-0.344 ± 0.047
S33T	0.066 ± 0.061
S33V	-0.385 ± 0.044
S33Q	-0.188 ± 0.098
S33W	-0.802 ± 0.083
S33N	-0.001 ± 0.075
S33E	-0.067 ± 0.065
S33D	-0.267 ± 0.077
S33L	-0.188 ± 0.053
S33I	-0.42 ± 0.061
S33R	0.056 ± 0.048
S33A	-0.061 ± 0.047
S33H	0.098 ± 0.079
S33K	0.05 ± 0.069
S33C	-0.153 ± 0.078
A47H	0.235 ± 0.12
A47R	0.004 ± 0.053
A47Q	0.193 ± 0.083
A47W	-0.296 ± 0.055
A47D	0.218 ± 0.089
A47G	0.01 ± 0.045

Variant	abundance fitness
A47K	-0.204 ± 0.097
A47T	-0.056 ± 0.065
A47E	-0.002 ± 0.068
A47P	0.008 ± 0.065
A47M	-0.212 ± 0.072
A47S	-0.04 ± 0.068
A47F	-0.204 ± 0.07
A47N	0.011 ± 0.11
A47C	-0.049 ± 0.074
A47L	-0.083 ± 0.045
A47I	-0.167 ± 0.083
A47V	-0.042 ± 0.047
N32P	-0.594 ± 0.096
N32Q	-0.18 ± 0.073
N32C	-0.312 ± 0.066
N32Y	-0.24 ± 0.1
N32V	-0.064 ± 0.05
N32T	-0.035 ± 0.084
N32H	-0.286 ± 0.079
N32D	-0.118 ± 0.094
N32K	-0.011 ± 0.053
N32E	-0.03 ± 0.047
N32S	-0.086 ± 0.054
N32M	-0.164 ± 0.063

Variant	abundance fitness
N32L	-0.181 ± 0.06
N32F	-0.39 ± 0.095
N32I	0.074 ± 0.098
N32A	-0.339 ± 0.073
N32R	-0.044 ± 0.053
N32W	-0.395 ± 0.043
R42N	-0.687 ± 0.22
R42G	-0.656 ± 0.046
R42K	-0.352 ± 0.11
R42L	-0.787 ± 0.058
R42D	-1.15 ± 0.25
R42S	-0.661 ± 0.053
R42T	-0.71 ± 0.053
R42H	-0.67 ± 0.096
R42E	-0.752 ± 0.052
R42P	-0.474 ± 0.083
R42C	-0.847 ± 0.12
R42Y	-1.05 ± 0.067
R42F	-1.09 ± 0.19
R42M	-0.718 ± 0.06
R42W	-1.18 ± 0.087
I48G	0.025 ± 0.054
I48V	0.132 ± 0.31
I48T	0.051 ± 0.21

Variant	abundance fitness
I48F	-0.306 ± 0.43
I48Q	1.1 ± 0.46
I48L	-0.123 ± 0.47
I48M	-0.176 ± 0.21
N45L	-0.094 ± 0.04
N45E	-0.046 ± 0.053
N45K	0.029 ± 0.047
N45D	-0.213 ± 0.076
N45C	-0.103 ± 0.084
N45V	-0.106 ± 0.058
N45M	-0.163 ± 0.083
N45G	-0.045 ± 0.064
N45S	-0.011 ± 0.044
N45W	-0.331 ± 0.064
N45H	-0.068 ± 0.063
N45A	-0.028 ± 0.074
N45R	0.003 ± 0.059
N45T	-0.007 ± 0.066
N45Q	-0.102 ± 0.063
N45I	-0.099 ± 0.088
N45F	-0.634 ± 0.12
N45Y	-0.157 ± 0.1

— the Human Domainome abundance scans (Beltran et al. 2025)
